Patent publication US7871610B2, “Antibodies to Tie1 ectodomain” (Dyax Corp., priority 2003, dated 2011)

Biological target: T1, recombinant human Tie1-Fc (Homo sapiens, UniProt P35590)
T1 construct: selected against the Tie1 extracellular domain fused to human Fc or to a histidine purification tag
T1 sequence (P35590 22-759 limits assumed): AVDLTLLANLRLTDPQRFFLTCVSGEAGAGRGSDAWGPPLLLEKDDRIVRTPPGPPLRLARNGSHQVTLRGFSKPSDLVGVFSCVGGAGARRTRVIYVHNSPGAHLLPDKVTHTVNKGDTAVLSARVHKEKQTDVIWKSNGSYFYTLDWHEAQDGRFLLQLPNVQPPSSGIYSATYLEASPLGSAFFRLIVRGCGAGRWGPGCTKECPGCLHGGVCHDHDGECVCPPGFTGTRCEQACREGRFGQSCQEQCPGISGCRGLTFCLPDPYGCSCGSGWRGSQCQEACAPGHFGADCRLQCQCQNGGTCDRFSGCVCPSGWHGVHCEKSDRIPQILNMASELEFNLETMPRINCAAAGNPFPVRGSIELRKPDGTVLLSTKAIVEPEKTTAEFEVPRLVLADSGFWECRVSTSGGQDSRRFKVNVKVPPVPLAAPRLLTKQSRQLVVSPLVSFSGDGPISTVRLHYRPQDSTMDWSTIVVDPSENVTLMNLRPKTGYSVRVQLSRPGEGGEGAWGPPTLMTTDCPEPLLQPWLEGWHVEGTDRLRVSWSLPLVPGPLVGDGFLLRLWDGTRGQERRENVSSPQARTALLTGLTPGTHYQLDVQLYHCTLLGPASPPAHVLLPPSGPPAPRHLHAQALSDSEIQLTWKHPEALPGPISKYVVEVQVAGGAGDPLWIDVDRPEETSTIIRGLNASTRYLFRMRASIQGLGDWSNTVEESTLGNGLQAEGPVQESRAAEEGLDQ
Experiment: BIAcore, E3 Fabs on recombinant human Tie1-Fc
Type: binding
Settings: Fab
Procedure: Recombinant purified human Tie1-Fc antigen (Stock 2.45 mg/ml) was biotinylated using the EZ-link Sulfo-NHS-SS-Biotin (Pierce, Cat. 21331). The reaction was performed for 2 hours on ice in 50 mM sodium carbonate buffer, pH 9.6, in the presence of a 5-fold molar excess of biotinylating agent and was stopped by the addition of Tris-HCl, pH 7.5 (50 mM final concentration) followed by a 1-hour incubation on ice. Samples were then dialyzed against PBS. The antigen was then diluted 1/100 fold in HBS and was then captured onto a streptavidin chip. This was coated to a density of 830RU (resonance units). All analysis was performed in HBS buffer. The parental Fab E3 and germlined E3 Fab were prepared as described above. A stock solution of 0.587 mg/ml (11740 nM) was diluted 1/587 in HBS+BSA to obtain a stock of 20 nM and the germlined Fab E3 0.025 mg/ml (500 nM) was diluted 1/25 in HBS+BSA to obtain a stock of 20 nM. Serial dilutions were made of each Fab preparation to obtain 10 nM, 5 nM, 2.5 nM, and 1.25 nM solutions. For the association phase samples were injected at 30 μl/min for 4 minutes using kinject program. […] All samples were run and analyzed in duplicate.
Sensorgrams were analyzed using the simultaneous ka/kd fitting program with 1:1 model in the BIAEVALUATION™ software 3.1.

B1: E3: human anti-Tie1 antibody from Fab phage library; HC SEQ ID NO:114, LC SEQ ID NO:116 (antibody, V domains shown)
VH: EVQLLESGGGLVQPGGSLRLSCAASGFTFSMYGMVWVRQAPGKGLEWVSVISPSGGNTGYADSVKGRFTISRDNSKNTLYLQVNSLRAEDTAVYYCARAPRGYSYGYYYWGQGTLVTVSSASTKGPSVFPLAPSSKSTSGG
VL: DIQMTQSPLSLSASVGDRVTITCRASQGIGHYLAWYQQKPGKVPKLLIYTASTLQSGVPSRFSGSGSGTDFTLTINSLQPEDVATYYCQQFNSYPHTFGQGTRLDIK
modifications: Synthetically generated peptide
Q: B1 was tested. Which “effect of germlining on binding activity” value did it give?
A: minimal effect on the binding activity
